Data on 17 sequences can be found in the DeepSol protein solubility set.

A short description of the data set: soluble on expression in E. coli; label from the status in PepcDB or PDB records.
With “MGSDKIHHHHHHMNNTPANRLQPKHFTLIKAIGDLGQLSLAAGQVSMTQPAASRMLAEIERIVGAAVFLRTPKGMEATEVGAALVRRSEILLQEMREAMREVDAIKRGASGTVSVGAVTGGALGYIVPAISTLKAEARTADIYVDVAPSGTLISNLVSGQFDFVLGRIPVGVDARQFHIRHARTEEVDLIVHQSHPLANSTDLRMTDLLHFPWVMQGPGAPVRQAVENAFIDAGTTLPVDVVNTTSLLVMIAMIAASNAITPLSREVSDLLCRQTTGAGLCRLKIRRPIIVLPYHLISMKNRHMSTLAARLQDLVLQEFITR”, the “soluble on expression in E. coli” value is “not soluble”.
The same measure for “MKFYNREKELNYLKTYCQLDPNSILFVYGPKSSGKSTVMRRVIKELEDSNIVFFYYNLRKYATYSKEEFLRVFFEKSEKKYLLNKLELNLGVFKFGVEENFDFNNLKLNDVFAKINESINAVVEDGKKPVLIIDELQKLKNIYFNGGKSLLNELFNLFVSLTKMEHLCHVICLTSDTLFIEEIYQSSTLENTSKYYLIDWLRKGTIRNILKEEGFSEEEINYCLDYLSLPYEIVDLIENKKLGLSVEETIRQWINIEKDKIKYLIDTTDLDEEELYKVLSKFKDKIKISYEKEVKKEEMKYFKFLIKNEILFYDVINGIIKPTSVKKWYAIREILK”: “not soluble”; for “MLAAYRGRVMTRIAVELSLLTFVRSSELRFARWDEFDFDKSLWRIPAKREEIKGVRYSYRGMKMKEEHIVPLSRQAMILLEQLKQISGDKELLFPGDHDATKVMSENTVNSALRAMGYDTKTEVCGHGFRTMARGALGESGLWSEDAIERQLSHSERNSVRAAYIHTSEHLDERRLMVQWWADYLDANKIKPLEHHHHHH”: “not soluble”; for “MGSDKIHHHHHHMIKIAIVGFGTVGQGVAELLIRKREEIEKAIGEFKVTAVADSKSSISGDFSLVEALRMKRETGMLRDDAKAIEVVRSADYDVLIEASVTRVDGGEGVNYIREALKRGKHVVTSNKGPLVAEFHGLMSLAERNGVRLMYEATVGGAMPVVKLAKRYLALCEIESVKGIFNGTCNYILSRMEEERLPYEHILKEAQELGYAEADPSYDVEGIDAALKLVIIANTIGVKASYEDVEVTGITQITPEAFQVAAEKGYTIRLIAEVSREKLKVSPRLVPFHHPLAIKGTMNAAMFKTDTAGSIFVAGRGAGKEETASAILSDLYEIYAGPR”: “not soluble”.
Regarding “MAAYKDLTKEELLELKSGLQAQFEEVKARGLKLDMSRGKPAAAQLNLSMEMMNILNSGTDLVCEDGVDCRNYGGLDGIAEAKQLLADMMEVPKDNVIVFGNSSLNVMYDTVARAMTHGIMGSTPWCKLDKVKFLCPVPGYDRHFAITEHFGIEMINVPMTATGPDMDLVEKLVSEDPAIKGIWCVPKYSNPQGITYSDETVYRFANLKPAAEDFRIFWDNAYCVHHLYEDKQDYLLEILMECKKAGNQDMVYKFSSTSKISFPGSGIAAIAASDANLADIRNMMKVQTIGHDKVNQLRHVRFFKDIHGIVEHMKKHADIMRPKFETVINTLERELGGLEIGSWIAPRGGYFISFDAMEGCAKAIVAKAKEAGLVMTGAGATFPYGKDPKDSNIRIAPSYPTPEELAVAAEIFVLSVKLVSIDKLLKNL”, the “soluble on expression in E. coli” value is “not soluble”.
The same measure for “MGSDKIHHHHHHMSIAIRRDEEIALSCHGVSKSFVISGEQNIWRMFCALPVRGEVFAALRDVSLEVPRGKIVGILGRNGAGKSTLLRVLGGVYQPTSGTVDVHGQVCGLFEMGGFGNRELSGREYATRYLTVMGAPRKDRGDLLADIAEFSELGADFDRKILTYSAGMAARLYFSTATAMRHEIYLIDELLSVGDEHFQAKCWIRMRNLLLNGASGILVTHDWVSTLKLCQQSHILERGSIVASGRTDAAVVKYLDLPVPDGALARFCDSDRATWHAVAGEDAVFEFDIESEEDIPLVFTYSVELMRIGIGWDIMLLGQRPIGSGNGRRRVQLKVPALPLAPGEYSLTVGLIKEKTRAEDEAVICDARGWTTGNGYVLEVSGTLEQGTTILPMEISGWIDD”: “not soluble”; for “MEKFDVIIIGAGPAGLFAAYELVERSNMKVLIIDEGGDVDQRVCPMDQLGYCIGCKPCHIMSGVGGAGGLSDGTVNLRPDIGGDLTELTNDENYSWQLVWEVDQILLKHGAPRNLYKGDPDQIRYWERKAAQAGVKFIPIIQRHIGSDNTPRVIKSIKQYLESKGVKFLLWTKALEFNKGWVKVRRGKDVFTIEGKYIIVAPGRGGAEWFHEIAQKIGLKARHGPIDVGVRVEVPAIIMEPITSINHDPKFHIYTDTYDDFVRTFCTNPYGFVVEERYDGYVGVNGHSMRNKKSNNTNFAFLTRIELTEPVEDTTAYGRSIAQLATTIGGGRPILQRLGDLRRGRRSTWSRIRKSNVEPTLKHVTPGDIAMALPHRVVTNIIEGLEKLDKVIPGVASDHTLLYAPEIKYYAMKVEVNELLETSIENVFAAGDGAGLSRDIVNAAATGIMAARGILVKEGLYNLKDFKKPGNWKEKIESLEPEELEHHHHHH”: “soluble”.
In the case of “METHLGWARSLEAVLSDRSALDAFQEWLIEYSSPQYLDLFFAIRAYERMALEGKPEKSQLSKSIYSKFLSSRTGNCEAIPKHFRAPIGEKLRHGTELEDRVFSHCSNFVQEFLRRQHEEFVGSEEFIEAFNKMSSTTADQLPGGSAHHSSHQNTMRRSSGTTSRKSAAQIATQLTAEALLKSKHDRHSKLGETKLEKMYPPTRQPYVCNATTSHNDSAVSSTFSGDTPEAHRMHSNRLRHIRDEQARENHGTMTLPRVEKASVDGQQWDHSSESGRRNFAMEITRKLLRHIDKVKLNDEMEKRIDDIEECRYTTIDMVNGTEPNDDLGKIDEDEELDDYLKMKMTDDSQKGSTNRSPKGPAGEPNKSGEGSKNTTLSPTNRAPAQLHNTIRVPRRKDYPRDTSASLKSHRHHQIDTNRMMSQSMCAPSYSSASSSYSRDSFAPAPTTRVNFAPGSSKSSQFYDSSGIGSMAPSAFSATSSLDYKDRRQHRKAPTPKKHSKIGKNLSNLITISYLGTDKIPVVTHVPNDGPMTLAEFKRHFALPNGAHQLFFKTECEDGSAPFQLLLIKDEHHLLPVFEGRIAAELR”, the “soluble on expression in E. coli” value is “not soluble”.
With “MLHITAAKARAGGQIGGVFCLAQCSLNVLVSGMQTQPLPPLISARPVGRGARSNDAGRFEPLERVAEHDGWEREEELPPLRTQVSLETARSLISYNRSPDLPFDRSINPYRGCEHGCSYCFARPSHAYLGLSPGLDFETRLVARPNAAEVLRAELSARRYKVAPIAIGTNTDPYQPLEKTHAITRACLQVLAEFNHPVAIVTRGALIERDLDILAPMAARGLVRVGISLTTLDAALARRMEPRAPSPKRRLAMIRALNGAGVPVRVMTSPLIPGLTDHELESLLAAGAEAGADTASWIMLRLPREVSPLWQEWLAEHAPARAAKVMARLREMHGGRDYDPRWGHRMRGEGEYAQMIAKRFRAACKRIGLAQEAPALRCDLFRVPPQPGDQLSLF”, the “soluble on expression in E. coli” value is “not soluble”.
Regarding “MSSSSESDSEGERKLPLSYRRKRRRDSSSTTNSEVSDNDRKKRQNEKRRSRESSKMKHQKTAKRDKPMWKEEGEISCDSESDVCNSSSSNNRSRCRDRRRRTDYGRRRHRNSDSRSHERWSTRRRQTTPEGNFRCDECGCNHYTLKGLIHHEMNDHNLNAKCHLCQKSFENKKTFREHCELDHTPEVVRCVFCKSSFDQPLEMNDEQWAHFFAHIYGEILYSRLADYEDRALNTA”, the “soluble on expression in E. coli” value is given as “not soluble”.
With “MGSDKIHHHHHHMTITEKRKDFILNSWIKISDDCLKEYLSRELELTDKGQVKSTTTNIITAIVNPDYCVSHKILNGSVFFDTCSQTIRLIGSIKGESEVNLKAPRKWTDQLTNLLGVEIEMNFGIKYSKGRMEEAVIFIANKRRVNLPKLYMKSLKYDGEDYISKLLPKYLGVDDTALNRWIMEHMLIGMVNRVFYPGCKFDEIMVLTGEQGVGKTSFIEKLALLPDWYCSLNNIKGKDAVSNLVGKIVVELEEFVALKNAKTADEAKLFISTRTSTVRLSYERFSADVDRTCIMIATTNDMTFLGDFSGERRYLPVQVHKEKVGLPVMYDQEKFPQLKGVSREEYSKIVKKDFEGAVAQAVYLFENKLYSPVLPVELRKDLNQVIQMHKNENRHVQNFFEFMDWKDTKSDTPNRVCSGEFLSQYPQTNEKVFAELMANEMADKWELEPTDKSRKFKIDGRVRVSKKFYVRKNMPDFIEVTDDIEIPF” the entry was “not soluble”; with “GPGSMHLDEMLKEIQDMQEKNWTAVERTDIILAKLCAFLDKLAHSLRFMATSQPSCGAGAVCSAGVAVTTHTHGESARGLRISRDIRTAAAGRPFETEVDD”, “soluble”.
In the case of “MAHHHHHHMADRADHYINQLNDAYALKVGGIYNHSTLASSNHNKAHTFGSMPHALIQMFEGDVVKAVEAYHKTFPEDDLYALVDFHNDVISDSLACLKAFKNKLKAVRIDTSKALIDKMFSEGEAEYGVTQNQVKRLREALDANGGKHVKITVSSGFNAKRIKEFEDENTPVDTYGVGASLLKI”, the “soluble on expression in E. coli” value is on record as “soluble”.
In the case of “MAHHHHHHMKKLHQERGGNPMLAQQARRVLFATSITGQNIDARSIALLLNTAVYFGMESDARVVRECIDFCLKNDKFISLDIMPIVVTACATLQSRDAREVIELQAIKATRNARFLDAKGVTNVISAFSKTGINHEKLFGLLSMRVQTLARVGEFEAAHLVILANAFARLRFREQHVFSAIARRAMSLRERVTVNELVPLINAFSKAGLKDPKLSKRFAGKAMEYVDQMNAEQVALMFQAFAYFGIRYDQLFGVLTNRAVELIDEFNAQYISTTLASFQRIGINNPELFDNLAERALAVVQDHDAKDIALTVTALAHFGLKDEELFKRLASHAASIADQFDPVGLVNTIHAFARTFFLQEDMVVALSERCVYVCRHLDANQVRRLLWSLAKFQVKDPRILTPVFNRCLTLHQDFFSDPMGGEEIEEIFDVFGPSFCPPLYQLYMSRGNSV”, the “soluble on expression in E. coli” value is listed as “not soluble”.
Turning to “MGSDKIHHHHHHMEINTEIAIAWMSARQGKVSYSMDYRDGPNSYDCSSSVYYALRSAGASSAGWAVNTEYMHDWLIKNGYELIAENVDWNAVRGDIAIWGMRGHSSGAGGHVVMFIDPENIIHCNWANNGITVNNYNQTAAASGWMYCYVYRLKSGASTQGKSLDTLVKETLAGNYGNGEARKAVLGNQYEAVMSVINGKTTTNQKTVDQLVQEVIAGKHGNGEARKKSLGSQYDAVQKRVTELLKKQPSEPFKAQEVNKPTETKTSQTELTGQATATKEEGDLSFNGTILKKAVLDKILGNCKKHDILPSYALTILHYEGLWGTSAVGKADNNWGGMTWTGQGNRPSGVTVTQGSARPSNEGGHYMHYASVDDFLTDWFYLLRAGGSYKVSGAKTFSEAIKGMFKVGGAVYDYAASGFDSYIVGASSRLKAIEAENGSLDKFDKATDIGDGSKDKIDITIEGIEVTINGITYELTKKPV”, the “soluble on expression in E. coli” value is listed as “not soluble”.
On to “SPEWPPCLSVAPALVITMAAGKGAPLSPSAENRWRLSEPELGRGCKPVLLEKTNRLGPEAAVGRAGRDVGSAELALLVAPGKPRPGKPLPPKTRGEQRQSAFTELPRMKDRQVDAQAQEREHDDPTGQPGAPQLTQNIPRGPAGSKVFSVWPSGARSEQRSAFSKPTKRPAERPELTSVFPAGESADALGELSGLLNTTDLACWGRLSTPKLLVGDLWNLQALPQNAPLCSTFLGAPTLWLEHTQAQVPPPSSSSTTSWALLPPTLTSLGLSTQNWCAKCNLSFRLTSDLVFHMRSHHKKEHAGPDPHSQKRREEALACPVCQEHFRERHHLSRHMTSHS”, for which the “soluble on expression in E. coli” value was “soluble”.
As for “MTNSSSSKKQAQDQPETSEPTLKSLKTKMTKSDEKQKKLKDIEISVPIVYGNVAFWLGKKASEYQSHKWAVYVRGATNEDISVVVKKVVFQLHSSFNSPTRVIEEPPFEVSESGWGEFEIAMTLHFHSDVCDKPLSLYHHLKLYPEDESGPLTMKKPVVVESYDEIVFPDPSESFLARVQNHPALTFPRLPSGYNLPAPMQVEDTGKKKRGDTKDHSLGQWFMSFSEADELLQLAAARQQVQAHIAKLRRQISLLEGQNQTVKTGSDL”, the “soluble on expression in E. coli” value is on record as “not soluble”.
